Test results as given in PMC5303829, “A CAF40-binding motif facilitates recruitment of the CCR4-NOT complex to mRNAs targeted by Drosophila Roquin” (Nature Communications, 2017).

Key:
Conditions in all cases: both partners purified
[1] = molecular target: T1, Hs CAF40 ARM domain (residues 19–285) (human, UniProt Q92600 19-285); experiment: pull-down; in vitro MBP pulldown: purified MBP-tagged Roquin fragments (40 μg) with equimolar purified CCR4-NOT proteins or subcomplexes on amylose resin; 50 mM HEPES-NaOH pH 7.5, 200 mM NaCl, 2 mM DTT; 1 h; maltose elution, SDS-PAGE, Coomassie
T1 construct: CAF40 (CNOT9) armadillo repeat domain, human, residues 19–285; also called CNOT9; purified CAF40 protein; source: E. coli BL21 (DE3) Star, purified (IMAC, heparin, gel filtration)

[2] = molecular target: T2, Hs NOT module (NOT1-SHD, NOT2-C, NOT3-C) (human, UniProt A5YKK6 1833-2361; Q9NZN8 350-540; O75175 607-748); experiment: as above
T2 construct: NOT1 superfamily homology domain (SHD), human, residues 1833–2361; NOT2-C, human, residues 350–540; NOT3-C, human, residues 607–748; also called NOT1-2-3; source: E. coli, purified as previously described; copies: + +

[3] = molecular target: T1, Hs CAF40 ARM domain (residues 19–285); experiment: crystal structure; synthetic CBM peptide mixed with the purified Hs CAF40 ARM domain in an equimolar ratio; 0.1 M NaOAc pH 5.0, 17.5% PEG 4000, 0.1 M AmSO4, 18 °C; 2.15 Å

T1 sequence (Q92600 19-285): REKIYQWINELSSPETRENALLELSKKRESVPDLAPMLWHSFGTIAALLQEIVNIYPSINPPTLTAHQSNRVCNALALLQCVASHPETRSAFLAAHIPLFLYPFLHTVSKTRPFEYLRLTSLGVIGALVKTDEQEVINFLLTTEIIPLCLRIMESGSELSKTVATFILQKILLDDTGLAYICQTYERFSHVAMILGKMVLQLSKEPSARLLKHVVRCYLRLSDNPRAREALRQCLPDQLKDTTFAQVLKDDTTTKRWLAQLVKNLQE
T2 sequence (A5YKK6 1833-2361, chain 1 of 3): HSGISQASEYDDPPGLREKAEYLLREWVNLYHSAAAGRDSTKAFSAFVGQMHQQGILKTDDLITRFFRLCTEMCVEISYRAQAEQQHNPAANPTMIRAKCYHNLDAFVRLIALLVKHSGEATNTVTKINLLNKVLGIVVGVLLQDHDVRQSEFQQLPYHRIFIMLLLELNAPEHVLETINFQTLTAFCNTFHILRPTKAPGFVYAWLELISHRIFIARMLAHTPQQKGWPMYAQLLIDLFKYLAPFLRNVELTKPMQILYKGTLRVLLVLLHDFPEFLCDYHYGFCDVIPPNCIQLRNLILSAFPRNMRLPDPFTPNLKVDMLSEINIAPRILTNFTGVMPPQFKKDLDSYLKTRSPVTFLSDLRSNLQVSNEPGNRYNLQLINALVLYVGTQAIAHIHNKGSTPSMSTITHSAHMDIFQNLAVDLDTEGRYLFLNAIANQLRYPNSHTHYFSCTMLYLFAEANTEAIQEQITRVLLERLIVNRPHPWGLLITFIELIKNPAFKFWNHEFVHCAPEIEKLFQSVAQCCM
T2 sequence (Q9NZN8 350-540, chain 2 of 3): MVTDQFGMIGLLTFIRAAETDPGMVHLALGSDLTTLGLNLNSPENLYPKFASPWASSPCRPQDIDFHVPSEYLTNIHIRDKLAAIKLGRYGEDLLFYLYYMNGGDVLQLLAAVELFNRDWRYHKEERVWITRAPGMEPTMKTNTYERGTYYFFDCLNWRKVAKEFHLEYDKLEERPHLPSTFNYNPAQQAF
T2 sequence (O75175 607-748, chain 3 of 3): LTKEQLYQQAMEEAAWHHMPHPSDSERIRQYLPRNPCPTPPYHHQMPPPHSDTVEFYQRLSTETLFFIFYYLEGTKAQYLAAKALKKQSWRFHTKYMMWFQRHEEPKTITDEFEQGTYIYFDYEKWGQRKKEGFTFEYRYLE

| Binder | binding result [1] | binding result [2] | binding result [3] |
| --- | --- | --- | --- |
| EGGIDSGMMLQLEKNLVDIVDPD (peptide, UniProt Q9VV48 790-812, looked up, source: E. coli BL21 (DE3) Star, purified; not shown: MBP, N-terminal, kept) [MBP-tagged Dm Roquin CBM alone] | binds | – | – |
| MBP-tagged Dm Roq-CC (domain or fragment, Drosophila melanogaster, UniProt Q9VV48 702-819, looked up, also called MBP-Roq-CC; not shown: MBP, N-terminal, kept) NTGKDSANFVRSDSILDDDASTFDVPTGSSMLSIYGPICPKSSTTGNWNNFDLGYGGFKSDRNDSFNANKQQQPMWGRKPQLMSEDSFEGGIDSGMMLQLEKNLVDIVDPDDSGIKVD | binds | binds | – |

The remaining lines, values ahead:

| binding result [1] | binding result [2] | binding result [3] | Binder |
| --- | --- | --- | --- |
| – | – | binds | EGGIDSGMMLQLEKNLVDIVD (peptide, UniProt Q9VV48 790-810, looked up, also called Dm CBM; source: synthetic peptide (EMC Microcollections)) [Dm Roquin CBM peptide (residues 790–810)] |
| – | binds | – | MBP-tagged Dm Roq-CN (domain or fragment, Drosophila melanogaster, UniProt Q9VV48 501-702, looked up, source: E. coli BL21 (DE3) Star, purified; not shown: MBP, N-terminal, kept) HYMGSPRGYLDPSLGLSPGGGLPPSHHSPITRLIVPSRYDSRFSGFGGGTPRIPSPREYQANPVAPTQRNANPPNFSVNSNLHKGYMLPASGGDVFHLANPWEQAYLAQQQHPPQHPQQQQPPSSKPNPSRPLSILPATADTSFFEKKPPNSVSIDLDRVPEVNVDAVPLFRRSNNNHNNNNSNSHNNNNNNHGSSLLFWNN |
